{"source": "patent US20150359847A1", "about": "“METHOD AND COMPOSITION FOR CONFERRING NEUROPROTECTION” (BLOOD SYSTEMS RESEARCH INSTITUTE, priority 2014, published 2015)", "molecules": {"B1": {"name": "TIMP3: Recombinant tissue inhibitor of matrix metalloproteinase-3, a soluble protein released by MSCs, obtained from Amgen Inc. (protein)", "chain": "CTCSPSHPQDAFCNSDIVIRAKVVGKKLVKEGPFGTLVYTIKQMKMYRGFTKMPHVQYIHTEASESLCGLKLEVNKYQYLLTGRVYDGKMYTGLCNFVERWDQLTLSQRKGLNYRYHLGCNCKIKSCYYLPCFVTSKNECLWTDMLSNFGYPGYQSKHYACIRQKGGYCSWYRGWAPPDKSIINATDP"}}, "key": {"[1]": {"test_system": "SH-SY5Y cells", "assay": "Colorimetric neurite outgrowth assay", "type": "cell-based, human", "settings": "1 μg/ml TIMP3, 48 hrs", "procedure": "Neurite Outgrowth Assay Kit™ 3 μm (Cat# NS220) and AXIS™ Axon Isolation Devices, 150 μm, Plasma Bonded chamber slides (Cat# AX15005PB) were purchased from (EMD Millipore, Billerica, Mass.). For neurite outgrowth assays SH-SY5Y cells were initially differentiated for 24 hrs at a density of 4×10^5 cells per well of a 6-well plate. Cells were then dissociated using kit supplied dissociation buffer and 3×10^5 cells were replated onto transwell inserts. […] Assay was conducted per manufacturer's instructions."}, "[2]": {"test_system": "S6 Ribosomal Protein (S235/236) in SH-SY5Y cells", "assay": "S6 Ribosomal Protein (S235/236) phosphorylation in SH-SY5Y cells", "type": "cell-based, human", "settings": "1 μg/ml TIMP3, 15 mins", "procedure": "SH-SY5Y cells were obtained from ATCC (Cat# CRL-2266, Manassas, Va.) and were cultured in DMEM and 10% FBS up to passage 10. For differentiation of SH-SY5Y cells into a neuronal phenotype, cells were first plated in DMEEM+10% FBS for 24 hrs before exchanging media in DMEM+1% FBS 10 μM retinoic acid. Differentiation was performed for 3 days before experimentation. Hippocampal neurons were prepared according to the protocol by Beaudoin et al. (Nature Protocols 2012; 7(9):1741-1754) with minor modifications. In brief, after trypsin digestion of hippocampi isolated from P1 mouse pups single cell suspensions was created by trituration and plated onto Biocoat™ poly-D-lysine coated 12-well plates (Cat#354470, BD Biosciences, San Jose, Calif.). 2 pups were used per well and cell suspensions were incubated for 10 minutes per well for a total of 6 wells. The serial incubation allowed for variation in cell densities applicable to different experiments but also contributed to the reduction in non-neuronal cells. […]\nPathscan Antibody™ array kits were purchased from Cell Signaling Technologies (Danvers, Mass.). PathScan® RTK signaling antibody array kit (Fluorescent Readout, Cat#7949) and PathScan™ Akt signaling antibody array kit (Fluorescent Readout, Cat#9700) were performed as per manufacturer's instructions. Imaging was performed on a LI-COR Odyssey™ infrared scanner and pixel densities measured by in house LI-COR Image™ suite software.\nCell lysates for western blotting were prepared with RIPA buffer (Cat#89900. Thermofisher Scientific, Rockford, Ill.) supplemented with phosphatase inhibitor cocktail 2 (Cat# P5726. Sigma, St Louis, Mo.), phosphatase inhibitor cocktail 3 (Cat# P0044. Sigma, St Louis, Mo.) and complete protease inhibitor (Cat#1862209. Thermofisher Scientific, Rockford, Ill.). […] Protein content was quantified with a Pierce BCA protein assay kit per manufacturer's instructions (Cat#23225. Thermofisher Scientific, Rockford, Ill.).\nLysates was analyzed in conjuncture with the LI-COR Odyssey™ infra-red imaging system. […]"}, "[3]": {"test_system": "phospho-Akt (Ser473) in hippocampal homogenates", "assay": "Hippocampal phospho-Akt western blot 3 days post-TBI", "type": "in vivo, mouse", "source_text": "The mouse controlled cortical impact (CCI) injury model was used as previously described. In brief, mice were anesthetized with 5% isoflurane and 1:1 O2:N2 mixture. Animals were mounted on a stereotaxic frame and were secured by ear bars and an incisor bar. Anesthesia was maintained with 2.0% isoflurane and 1:1 O2:N2 mixture. A 5-mm-diameter craniotomy was made midway between bregma and lambda on the right side, with the medial edge of the craniotomy 1 mm lateral to midline. Injury was produced using a magnetic impactor mounted at an angle of 110° from the vertical plane. A single impact at a velocity of 4+/−0.2 m/s was used inflict a moderate to severe injury (1.2-1.3 mm impact depth). After injury, the incision was closed. […] Core body temperature was monitored using a rectal thermometer and maintained at 36.8° C.-37.2° C. with a heating pad throughout the procedure. […]\nCell lysates for western blotting were prepared with RIPA buffer (Cat#89900. Thermofisher Scientific, Rockford, Ill.) supplemented with phosphatase inhibitor cocktail 2 (Cat# P5726. Sigma, St Louis, Mo.), phosphatase inhibitor cocktail 3 (Cat# P0044. Sigma, St Louis, Mo.) and complete protease inhibitor (Cat#1862209. Thermofisher Scientific, Rockford, Ill.). […] Protein content was quantified with a Pierce BCA protein assay kit per manufacturer's instructions (Cat#23225. Thermofisher Scientific, Rockford, Ill.). […]"}, "[4]": {"test_system": "mouse model of controlled cortical impact (CCI)", "assay": "Context-dependent fear discrimination in CCI TBI mice (Example 1)", "type": "in vivo", "settings": "TIMP3 60 μg/kg IV x3; task day 2 (day 16)", "source_text": "The mouse controlled cortical impact (CCI) injury model was used as previously described. In brief, mice were anesthetized with 5% isoflurane and 1:1 O2:N2 mixture. Animals were mounted on a stereotaxic frame and were secured by ear bars and an incisor bar. Anesthesia was maintained with 2.0% isoflurane and 1:1 O2:N2 mixture. A 5-mm-diameter craniotomy was made midway between bregma and lambda on the right side, with the medial edge of the craniotomy 1 mm lateral to midline. Injury was produced using a magnetic impactor mounted at an angle of 110° from the vertical plane. A single impact at a velocity of 4+/−0.2 m/s was used inflict a moderate to severe injury (1.2-1.3 mm impact depth). After injury, the incision was closed. Sham animals underwent identical surgeries except for impact injury. Core body temperature was monitored using a rectal thermometer and maintained at 36.8° C.-37.2° C. with a heating pad throughout the procedure. For treatments, TIMP3 (60.0 μg/kg) or vehicle control (PBS) administration was performed at 2, 24, and 48 hrs after injury via tail vein injections in a total volume of 125 μl. […]\nContextual discrimination was assessed in a manner similar to prior studies conducted by the inventors and others. […] Comparing the time spent freezing in each chamber during training assessed discrimination of the two contexts."}}}
{"molecule": "B1", "values": [{"measurement": "neurite outgrowth (colorimetric)", "setting": "[1]", "value": "promotes increased neurite outgrowth"}, {"measurement": "S6 Ribosomal Protein (S235/236) activation, western blot", "setting": "[2]", "value": "activates S6 Ribosomal Protein (S^235/236)"}, {"measurement": "S6 Ribosomal Protein (S235/236) phosphorylation, antibody array", "setting": "[2]", "value": "phosphorylates mTORC1 pathway target S6 Ribosomal Protein (S^235/236)"}, {"measurement": "phospho-Akt (Ser473) in ipsilateral hippocampal homogenates", "setting": "[3]; TIMP3 60 μg/kg IV x3, day 3, 1 hr after last injection, vs TBI alone", "value": "significantly elevates"}, {"measurement": "Phospho-Akt (Ser473) in contralateral hippocampal homogenates", "setting": "[3]; day 3", "value": "No differences were observed"}, {"measurement": "discrimination between shock and safe contexts", "setting": "[4]", "value": "discriminated between the environments following training"}]}
